Publication PMC7442819, “Taf14 recognizes a common motif in transcriptional machineries and facilitates their clustering by phase separation” (Nature Communications, 2020)

B1: Snf5_(771–800) [Saccharomyces cerevisiae] / Taf14ET (Taf14_(174–244)) [Saccharomyces cerevisiae] (parent)
chain 1: SPPCYIIDHIPGHSLLLSIKLPGKVNTKEE
chain 2: KGSVDLEKLAFGLTKLNEDDLVGVVQMVTDNKTPEMNVTNNVEEGEFIIDLYSLPEGLLKSLWDYVKKNTE
B2: Ino80_(368–390) [Saccharomyces cerevisiae] / Taf14ET (Taf14_(174–244)) [Saccharomyces cerevisiae] (parent)
chain 1: DSKLNIKITLKQYHVKRLKKLIN
chain 2: B1 chain 2
B3: Sth1EBM (Sth1_(1183–1240)) [Saccharomyces cerevisiae] / Taf14ET (Taf14_(174–244)) [Saccharomyces cerevisiae] (parent)
chain 1: EVKSSSVEIINGSESKKKKPKLTVKIKLNKTTVLENNDGKRAEEKPESKSPAKKTAAK
chain 2: B1 chain 2

Variants of: B1
Assay: ITC
Settings: with Taf14ET (Taf14_(174–244)) [Saccharomyces cerevisiae]

| screen value | Variant |
| --- | --- |
| 0.52 kcal/mol | chain 1 I19A |
| 0.55 kcal/mol | chain 1 L17A |

Variants of: B2
Assay: ITC
Settings: with Taf14ET (Taf14_(174–244)) [Saccharomyces cerevisiae]

| screen value | Variant |
| --- | --- |
| 3.42 kcal/mol | chain 1 L10A |
| 4.41 kcal/mol | chain 1 I6A |

Variants of: B3
Assay: ITC
Settings: with Taf14ET (Taf14_(174–244)) [Saccharomyces cerevisiae]

| screen value | Variant |
| --- | --- |
| 7.23 kcal/mol | chain 1 L22A |
| 5.27 kcal/mol | chain 1 L28A |
| 6.7 kcal/mol | chain 1 V24A |

Same assay, conditions: with Sth1EBM (Sth1_(1183–1240)) [Saccharomyces cerevisiae]

| screen value | Variant |
| --- | --- |
| 5.99 kcal/mol | chain 2 F47R |
| 8.16 kcal/mol | chain 2 F47A |
| 1.21 kcal/mol | chain 2 I49R |
